From paper PMC6486636 (2019)

T1: His-SUMO-MLLE (PABPC1 MLLE domain 544-626 fused with a His-tagged SUMO tag) (Homo sapiens (Human), UniProt P11940)
T1 chain: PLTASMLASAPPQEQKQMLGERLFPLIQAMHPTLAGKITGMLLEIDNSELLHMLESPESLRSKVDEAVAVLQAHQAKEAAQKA


Columns and labels:
[1] = target: T1, His-SUMO-MLLE (PABPC1 MLLE domain …); assay: Ni-NTA pull-down, SDS-PAGE
[2] = target: LARP4A (1-287), N-terminal domain (Homo sapiens (Human), UniProt Q71RC2); assay: competition EMSA (MLLE displacing 32P-oligoA15 from NTD); mutually exclusive with oligoA15 RNA; measured by competition with preformed NTD-oligoA15 complex
Chain of LARP4A (1-287), N-terminal domain (Homo sapiens (Human), UniProt Q71RC2) (Q71RC2 1-287): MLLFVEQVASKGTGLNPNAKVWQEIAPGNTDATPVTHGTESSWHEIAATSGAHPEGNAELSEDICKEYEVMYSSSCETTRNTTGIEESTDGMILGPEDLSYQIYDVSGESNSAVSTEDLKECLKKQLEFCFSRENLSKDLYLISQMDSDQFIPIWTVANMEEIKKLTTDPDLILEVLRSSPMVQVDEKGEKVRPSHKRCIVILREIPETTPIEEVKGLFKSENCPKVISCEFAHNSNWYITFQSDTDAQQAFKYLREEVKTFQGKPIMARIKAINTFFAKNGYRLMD

Row | Binder | binding result [1] | binding result [2]
1 | LARP4A (1-287), N-terminal domain (protein) not shown | binds | 
2 | PABPC1 MLLE (544-626) (protein) PLTASMLASAPPQEQKQMLGERLFPLIQAMHPTLAGKITGMLLEIDNSELLHMLESPESLRSKVDEAVAVLQAHQAKEAAQKA |  | binds
